Measured values published in publication PMC7603069, “Crucial Role of the C-Terminal Domain of Hfq Protein in Genomic Instability”.

T1: Hfq-CTR peptide (Escherichia coli, UniProt P0A6X3)
T1 chain: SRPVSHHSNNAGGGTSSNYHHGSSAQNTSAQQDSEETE


How the values were obtained:
Hfq-CTR peptide [1] = biological target: T1, Hfq-CTR peptide; assay: EMSA?; method not stated for dG7; EMSA: quadruplex prepared in water (95 C 5 min, slow cooling), 20 min at room temperature; native 4-20% polyacrylamide gel in TAE pH 8.0 (40 mM Tris-acetate, 1); conditions: parallel G-quadruplex
Hfq-CTR peptide [2] = biological target: T1, Hfq-CTR peptide; assay: EMSA; quadruplex annealed in water without salt; EMSA: quadruplex prepared in water (95 C 5 min, slow cooling), 20 min at room temperature; native 4-20% polyacrylamide gel in TAE pH 8.0 (40 mM Tris-acetate, 1); conditions: parallel G-quadruplex

Row | Binder | Kd (Hfq-CTR peptide [1]) [µM] | Kd (Hfq-CTR peptide [2]) [µM]
1 | GGGGGGG (structured_DNA) [dG7] | 0.981 ± 0.096 | –
2 | GGGTGGGTGGGTGGGT (structured_DNA) [d(G3T)4] | – | 1.06 ± 0.074
